Assay results from patent publication US20250312444A1 (BEIJING TUO JIE BIOPHARMACEUTICAL, published 2025).

Key:
human RXFP1 receptor [1] = molecular target: T1, human RXFP1 receptor (human, UniProt Q9HBX9 1-757); test: cell-based or functional assay
T1 sequence (looked up): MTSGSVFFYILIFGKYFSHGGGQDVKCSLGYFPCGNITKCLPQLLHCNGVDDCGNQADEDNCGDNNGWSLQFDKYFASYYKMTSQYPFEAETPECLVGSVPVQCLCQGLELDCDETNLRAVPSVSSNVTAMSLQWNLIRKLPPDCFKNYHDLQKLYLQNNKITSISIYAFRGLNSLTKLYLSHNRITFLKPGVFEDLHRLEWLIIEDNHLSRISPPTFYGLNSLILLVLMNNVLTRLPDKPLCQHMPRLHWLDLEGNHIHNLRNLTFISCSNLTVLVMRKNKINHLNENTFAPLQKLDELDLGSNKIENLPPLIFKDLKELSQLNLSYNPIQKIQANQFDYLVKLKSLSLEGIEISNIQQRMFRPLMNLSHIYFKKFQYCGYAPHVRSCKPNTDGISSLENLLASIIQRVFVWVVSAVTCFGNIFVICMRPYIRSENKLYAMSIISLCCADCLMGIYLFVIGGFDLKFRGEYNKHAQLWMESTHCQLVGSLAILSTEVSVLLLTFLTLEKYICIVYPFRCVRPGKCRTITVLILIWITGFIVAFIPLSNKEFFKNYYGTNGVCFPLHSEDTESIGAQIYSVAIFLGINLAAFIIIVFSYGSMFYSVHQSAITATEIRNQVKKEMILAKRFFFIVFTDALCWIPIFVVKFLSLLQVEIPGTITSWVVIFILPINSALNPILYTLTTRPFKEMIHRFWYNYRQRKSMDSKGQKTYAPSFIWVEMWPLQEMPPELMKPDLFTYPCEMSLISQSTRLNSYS

human RXFP1 receptor [2] = molecular target: T1, human RXFP1 receptor; test: cell-based or functional assay; remark: listed apart in the source
[3] = molecular target: human serum albumin (HSA) (human); test: SPR Biacore T200, albumin amine-coupled, fusion protein as analyte
Procedure: (§1) Coupling of serum albumins from different species to an S series CM5 sensor chip (GE, Cat. 29-1049-88) was performed using an amino coupling kit (GE, Cat No. BR-1000-50). The albumin from each species was diluted to 2 μg/mL. After the CM5 chip was activated with EDC/NHS, the diluted albumin was flowed over the chip to reach a surface response value of about 200 (180 to 230) RU, and then the chip was blocked with ethanolamine. The blank control channel also needed to be activated with EDC/NHS and blocked with ethanolamine. […] The samples of 0051 and 0054 at different concentrations were separately flowed through the albumin-coupled and blank channels for 3 min at a flow rate of 50 μL/min, with a dissociation time of 4 min. After the end of each cycle, the chip was regenerated using 10 mM glycine-hydrochloric acid (pH 1.5) (GE, Cat. #BR-1003-54). The reaction signals were detected in real-time using Biacore T200 (GE) to obtain the association and dissociation curves, and the data obtained were fitted with a Langmuir 1:1 binding model using the BIAevaluation version 4.1 software at appropriate concentration points to obtain the affinity values.

[4] = molecular target: mouse serum albumin (mSA) (mouse); test: as above
Procedure: as §1

rat serum albumin [5] = molecular target: T2, rat serum albumin (rat); test: as above
T2 chain: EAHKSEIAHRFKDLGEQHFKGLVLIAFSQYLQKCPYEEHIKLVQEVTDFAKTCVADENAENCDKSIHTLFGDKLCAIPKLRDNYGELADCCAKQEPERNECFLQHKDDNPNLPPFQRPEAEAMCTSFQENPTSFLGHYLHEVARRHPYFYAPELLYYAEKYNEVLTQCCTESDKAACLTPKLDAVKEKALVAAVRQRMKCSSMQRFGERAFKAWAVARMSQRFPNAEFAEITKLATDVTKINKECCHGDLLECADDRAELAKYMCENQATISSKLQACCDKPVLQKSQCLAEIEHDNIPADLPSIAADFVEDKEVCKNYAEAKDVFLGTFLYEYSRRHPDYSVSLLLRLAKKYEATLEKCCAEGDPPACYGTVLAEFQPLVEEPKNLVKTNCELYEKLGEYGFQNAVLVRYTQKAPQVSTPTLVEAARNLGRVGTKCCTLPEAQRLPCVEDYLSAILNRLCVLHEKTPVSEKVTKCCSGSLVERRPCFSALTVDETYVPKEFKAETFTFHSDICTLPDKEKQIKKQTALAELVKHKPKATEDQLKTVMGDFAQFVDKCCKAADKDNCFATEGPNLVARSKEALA
Procedure: as §1

[6] = molecular target: human serum albumin (HSA) (human); test: SPR Biacore T200, fusion protein captured by anti-VHH antibody, albumin as analyte
Procedure: (§2) Coupling of an anti-VHH antibody (MonoRab™ Rabbit Anti-Camelid VHH Cocktail, Genescript, Cat No. A02014) to an S series CM5 sensor chip (GE, Cat No. 29-1049-88) was performed using an amino coupling kit (GE, Cat No. BR-1000-50). The antibody was diluted to 10 μg/mL with 10 mM sodium acetate (pH 4.5) (GE, Cat No. BR-1003-50). After the CM5 chip was activated with EDC/NHS, the diluted anti-VHH antibody was flowed over the chip to reach a surface response value of about 5000 RU, and then the chip was blocked with ethanolamine for later use.
(§3) The albumin from each species was serially diluted in a gradient with 1XHBS-EP (10 mM HEPES, pH 7.4, 150 mM NaCl, 3 mM EDTA, 0.05% Surfactant P20). The test fusion protein molecule was captured using the anti-VHH antibody-coupled chip, with a response value of about 30 RU. Then, different concentrations of serum albumin were flowed over the surface of the chip for 3 min at a flow rate of 50 μL/min, with a dissociation time of 1-10 min (the dissociation time varied depending on the species of albumin). After the end of each cycle, the chip was regenerated using 10 mM glycine-hydrochloric acid (pH 1.5) (GE, Cat No. BR-1003-54). The reaction signals were detected in real-time using Biacore T200 (GE) to obtain the association and dissociation curves, and the data obtained were fitted with a Langmuir 1:1 binding model using the BIAevaluation version 4.1 software at appropriate concentration points to obtain the affinity values.

rat serum albumin [7] = molecular target: T2, rat serum albumin; test: as above
Procedure: as §2, §3

EC50 (nM), cAMP production in THP1 cells, 1% HSA (human RXFP1 receptor [1]): 28.4 nM
EC50 (nM), cAMP production in THP1 cells, without HSA (human RXFP1 receptor [1]): 3.83 nM
EC50 (nM), cAMP production in CHO-K1 cells with receptor overexpression (human RXFP1 receptor [2]): 28.3 nM
Kd [3]: 0.0422 nM
koff [3]: 0.000207 s⁻¹
kon [3]: 4.91e+06 M⁻¹ s⁻¹
Kd [4]: 37.9 nM
koff [4]: 0.0471 s⁻¹
kon [4]: 1.24e+06 M⁻¹ s⁻¹
Kd (rat serum albumin [5]): 1.95 nM
koff (rat serum albumin [5]): 0.00439 s⁻¹
kon (rat serum albumin [5]): 2.25e+06 M⁻¹ s⁻¹
Kd [6]: 20.2 nM
koff [6]: 0.0011 s⁻¹
kon [6]: 54500 M⁻¹ s⁻¹
Kd (rat serum albumin [7]): 156 nM
koff (rat serum albumin [7]): 0.00581 s⁻¹
kon (rat serum albumin [7]): 37200 M⁻¹ s⁻¹
B1: 0051 (other)
chain: EVQLLESGGGLVQPGGSLRLSCAASGFTFLTSCMGWFRQAPGKEREGVSSIYTVGGSTFYTNSVKGRFTISRDNSKNTLYLQMNSLRAEDTAVYYCAAGSPARCRLRDPTTFDYWGQGTLVTVSSGGGGQGGGGQGGGGQGGGGQGGGGQSWMEEVIKLCGRELVRAQIAICGMSTWSGGGSGGSGGGQLYSALANKCCHVGCTKRSLARFC
notes: Single-chain fusion: anti-HSA VHH, linker, relaxin-2 B chain, linker, relaxin-2 A chain; also called fusion protein 0051; molecule 0051
